ChEMBL document CHEMBL3526099, “Metabolism of triethylenetetramine and 1,12-diamino-3,6,9-triazadodecane by the spermidine/spermine-N(1)-acetyltransferase and thialysine acetyltransferase” (Drug Metab Dispos, 2013)

Legend:
[1] = system: NCCNCCNCCN; assay: not read
[2] = system: NCCCNCCNCCNCCN; assay: Drug metabolism assessed as mouse SSAT1-mediated metabolite formation; format: ADME

Sequence of Diamine acetyltransferase 1 (Homo sapiens) (chain, as listed by the source): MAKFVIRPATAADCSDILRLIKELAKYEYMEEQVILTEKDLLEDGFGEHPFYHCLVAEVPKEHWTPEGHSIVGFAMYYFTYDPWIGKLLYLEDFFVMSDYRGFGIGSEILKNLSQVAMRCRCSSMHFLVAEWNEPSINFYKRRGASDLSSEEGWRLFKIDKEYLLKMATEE
Sequence of Diamine acetyltransferase 1 (Mus musculus) (chain, as listed by the source): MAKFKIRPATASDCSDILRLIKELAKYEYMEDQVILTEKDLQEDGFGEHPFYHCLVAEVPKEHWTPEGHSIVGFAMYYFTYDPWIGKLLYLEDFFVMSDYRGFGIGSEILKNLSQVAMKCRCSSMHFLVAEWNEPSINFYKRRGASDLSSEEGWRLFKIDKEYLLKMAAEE

Substance | Km [1] | Vmax [1] | Km [2] | Vmax [2]
Diamine acetyltransferase 1 (Homo sapiens) | 83 µM | 0.9 µmol/min/mg |  | 
Diamine acetyltransferase 1 (Mus musculus) |  |  | 106 µM | 1.17 µmol/min/mg
